Results taken from the supplement of paper PMC5998384.

Legend:
HeLa Kyoto [1] = experiment: solubility in G1/S (NP-40 vs SDS abundance) (log2 ratio); higher = more soluble; details: cell cycle stage: G1/S
HeLa Kyoto [2] = experiment: thermal stability score vs G1/S (z-score of summed log2 fold changes over temperatures); higher = more thermally stable than in G1/S
HeLa Kyoto [3] = experiment: solubility change mitosis vs G1/S (difference of NP-40 vs SDS log2 ratios) (log2 ratio difference); higher = more soluble in mitosis
HeLa Kyoto [4] = experiment: melting temperature (median over replicates), in situ; higher = more thermally stable
[5] = cell cycle stage: early G1 (4.5 h after nocodazole release)
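For melting temperature (median over replicates), in situ in this document: HeLa Kyoto cells synchronized by double thymidine or nocodazole block, proteins quantified by TMT10plex mass spectrometry, three independent biological replicates.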
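For solubility change mitosis vs G1/S (difference of NP-40 vs SDS log2 ratios) in this document: synchronized HeLa Kyoto cells (double thymidine block for G1/S, nocodazole release for mitosis), protein amounts in NP-40 versus SDS lysates quantified by mass spectrometry, three biological replicates.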
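For solubility in G1/S (NP-40 vs SDS abundance) in this document: HeLa Kyoto cells arrested at G1/S by double thymidine block, proteins quantified by TMT10plex mass spectrometry in mild NP-40 versus SDS extracts, three biological replicates.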
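For thermal stability score vs G1/S (z-score of summed log2 fold changes over temperatures) in this document: synchronized HeLa Kyoto cells, proteins quantified by TMT10plex mass spectrometry, three biological replicates, mitosis taken 0.5 h after nocodazole release, G1/S directly after double thymidine block.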

| Sequence | solubility in G1/S (log2) (HeLa Kyoto [1]) | thermal stability score (HeLa Kyoto [2]; [5]) | thermal stability score (HeLa Kyoto [2]; cell cycle stage: mitosis) | solubility change mitosis (log2) (HeLa Kyoto [3]) | melting temperature (HeLa Kyoto [4]; cell cycle stage: G1/S) [°C] | melting temperature (HeLa Kyoto [4]; cell cycle stage: mitosis) [°C] |
| --- | --- | --- | --- | --- | --- | --- |
| MDFQHRPGGKTGSGGVASSSESNRDRRERLRQLALETIDINKDPYFMKNHLGSYECKLCLTLHNNEGSYLAHTQGKKHQTNLARRAAKEAKEAPAQPAPEKVKVEVKKFVKIGRPGYKVTKQRDSEMGQQSLLFQIDYPEIAEGIMPRHRFMSAYEQRIEPPDRRWQYLLMAAEPYETIAFKVPSREIDKAEGKFWTHWNRETKQFFLQFHFKMEKPPAPPSLPAGPPGVKRPPPPLMNGLPPRPPLPESLPPPPPGGLPLPPMPPTGPAPSGPPGPPQLPPPAPGVHPPAPVVHPPASGVHPPAPGVHPPAPGVHPPAPGVHPPTSGVHPPAPGVHPPAPGVHPPAPGVHPPAPGVHPPAPGVHPPPSAGVHPQAPGVHPAAPAVHPQAPGVHPPAPGMHPQAPGVHPQPPGVHPSAPGVHPQPPGVHPSNPGVHPPTPMPPMLRPPLPSEGPGNIPPPPPTN [SF3A2] | 0.0115 | -1.16 | -1.41 | 0.322 | 50 | 50.5 |
| MDGEEQQPPHEANVEPVVPSEASEPVPRVLSGDPQNLSDVDAFNLLLEMKLKRRRQRPNLPRTVTQLVAEDGSRVYVVGTAHFSDDSKRDVVKTIREVQPDVVVVELCQYRVSMLKMDESTLLREAQELSLEKLQQAVRQNGLMSGLMQMLLLKVSAHITEQLGMAPGGEFREAFKEASKVPFCKFHLGDRPIPVTFKRAIAALSFWQKVRLAWGLCFLSDPISKDDVERCKQKDLLEQMMAEMIGEFPDLHRTIVSERDVYLTYMLRQAARRLELPRASDAEPRKCVPSVVVGVVGMGHVPGIEKNWSTDLNIQEIMTVPPPSVSGRVSRLAVKAAFFGLLGYSLYWMGRRTASLVLSLPAAQYCLQRVTEARHK [TRABD] | 0.184 | 0.0844 | 0.106 | 0.0374 | 52.2 | 50.2 |
| MDKQNSQMNASHPETNLPVGYPPQYPPTAFQGPPGYSGYPGPQVSYPPPPAGHSGPGPAGFPVPNQPVYNQPVYNQPVGAAGVPWMPAPQPPLNCPPGLEYLSQIDQILIHQQIELLEVLTGFETNNKYEIKNSFGQRVYFAAEDTDCCTRNCCGPSRPFTLRIIDNMGQEVITLERPLRCSSCCCPCCLQEIEIQAPPGVPIGYVIQTWHPCLPKFTIQNEKREDVLKISGPCVVCSCCGDVDFEIKSLDEQCVVGKISKHWTGILREAFTDADNFGIQFPLDLDVKMKAVMIGACFLIDFMFFESTGSQEQKSGVW [PLSCR1] | 0.1 | -0.835 | -1.61 | -0.349 | 57.7 | 57.2 |
| MDLFGDLPEPERSPRPAAGKEAQKGPLLFDDLPPASSTDSGSGGPLLFDDLPPASSGDSGSLATSISQMVKTEGKGAKRKTSEEEKNGSEELVEKKVCKASSVIFGLKGYVAERKGEREEMQDAHVILNDITEECRPPSSLITRVSYFAVFDGHGGIRASKFAAQNLHQNLIRKFPKGDVISVEKTVKRCLLDTFKHTDEEFLKQASSQKPAWKDGSTATCVLAVDNILYIANLGDSRAILCRYNEESQKHAALSLSKEHNPTQYEERMRIQKAGGNVRDGRVLGVLEVSRSIGDGQYKRCGVTSVPDIRRCQLTPNDRFILLACDGLFKVFTPEEAVNFILSCLEDEKIQTREGKSAADARYEAACNRLANKAVQRGSADNVTVMVVRIGH [ILKAP] | 0.239 | 0.735 | 1.5 | -0.0534 | 49.3 | 49.8 |
| MDLLQFLAFLFVLLLSGMGATGTLRTSLDPSLEIYKKMFEVKRREQLLALKNLAQLNDIHQQYKILDVMLKGLFKVLEDSRTVLTAADVLPDGPFPQDEKLKDAFSHVVENTAFFGDVVLRFPRIVHYYFDHNSNWNLLIRWGISFCNQTGVFNQGPHSPILSLMAQELGISEKDSNFQNPFKIDRTEFIPSTDPFQKALREEEKRRKKEEKRKEIRKGPRISRSQSEL [CCDC134] | 0.505 | 1.83 | 1.3 | 0.012 | 51.7 | 53.3 |
| MDLSELERDNTGRCRLSSPVPAVCRKEPCVLGVDEAGRGPVLGPMVYAICYCPLPRLADLEALKVADSKTLLESERERLFAKMEDTDFVGWALDVLSPNLISTSMLGRVKYNLNSLSHDTATGLIQYALDQGVNVTQVFVDTVGMPETYQARLQQSFPGIEVTVKAKADALYPVVSAASICAKVARDQAVKKWQFVEKLQDLDTDYGSGYPNDPKTKAWLKEHVEPVFGFPQFVRFSWRTAQTILEKEAEDVIWEDSASENQEGLRKITSYFLNEGSQARPRSSHRYFLERGLESATSL [RNASEH2A] | 0.206 | 0.166 | 0.422 | -0.012 | 49.9 | 50.5 |
